Assay results taken from patent US20140120058A1, “POLYMER CONJUGATED PROSTAGLANDIN ANALOGUES” (POLYACTIVA PTY LTD, priority 2011, published 2014).

Test: In vitro drug release from melt-extruded rods in isotonic phosphate buffer
Format: physicochemical
Conditions: rod-shaped samples, isotonic phosphate buffer pH 7.4, 37° C.; for Release Rate (ng of free acid Latanoprost/mg polymer drug conjugate/24 hours): continuous stirring, HPLC-UV
Description: Following in vitro release guidelines recommended by the International Organisation of Standardisation, rod-shaped samples prepared by melt extrusion, were suspended in wire baskets which were immersed in isotonic phosphate buffer (IPB), adjusted to pH 7.4 using orthophosphoric acid and containing 0.01% sodium azide as a preservative, and incubated at 37° C. with continuous stirring. Aliquots of the receptor solution were removed for analysis at predetermined time points until drug release from the polymer no longer increased.
The amount of prostaglandin drug released from the rods at the various time points was quantified by reverse phase high performance liquid chromatography (HPLC) with a UV absorbance detector and analyte separation was performed on a C18 column either isocratically or with a gradient system using a degassed mobile phase.
Using the above method, the rate of release of the prostaglandin drug latanoprost from various polymer-drug conjugates was determined.

Polyurethane of (Z)-1,3-dihydroxypropan-2-yl 7-((1R,2R,3R,5S)-3,5-dihydroxy-2-((R)-3-hydroxy-5-phenylpentyl)cyclopentyl)hept-5-enoate and DVDIP [Example 12]
Period of zero-order release: 61 days | Release Rate (ng of free acid Latanoprost/mg polymer drug conjugate/24 hours): 637 ng of free acid Latanoprost/mg

Polyurethane of (Z)-1,3-dihydroxypropan-2-yl 7-((1R,2R,3R,5S)-3,5-dihydroxy-2-((R)-3-hydroxy-5-phenylpentyl)cyclopentyl)hept-5-enoate and ELDI [Example 10]
Period of zero-order release: 61 days | Release Rate (ng of free acid Latanoprost/mg polymer drug conjugate/24 hours): 899 ng of free acid Latanoprost/mg

Polyurethane of (Z)-3-hydroxy-2-(hydroxymethyl)-2-methylpropyl 7-((1R,2R,3R,5S)-3,5-dihydroxy-2-((R)-3-hydroxy-5-phenylpentyl)cyclopentyl)hept-5-enoate and DVDIP [Example 16]
Period of zero-order release: 61 days | Release Rate (ng of free acid Latanoprost/mg polymer drug conjugate/24 hours): 138 ng of free acid Latanoprost/mg
